# Assay results published in PMC9335916 (ACS Central Science, 2022).
# Molecular target: trypsin from porcine pancreas (porcine, UniProt P00761 9-231)
# Experiment: native MS
# Sequence of trypsin from porcine pancreas (P00761 9-231): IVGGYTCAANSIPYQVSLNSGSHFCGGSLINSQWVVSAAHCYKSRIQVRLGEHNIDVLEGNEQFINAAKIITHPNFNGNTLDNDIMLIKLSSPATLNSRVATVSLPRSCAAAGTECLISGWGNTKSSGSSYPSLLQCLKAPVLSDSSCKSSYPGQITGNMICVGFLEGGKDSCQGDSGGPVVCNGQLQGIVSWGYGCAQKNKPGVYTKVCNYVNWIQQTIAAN
binder,measurement,value
Soybean trypsin inhibitor (natural protein) DFVLDNEGNPLENGGTYYILSDITAFGGIRAAPTGNERCPLTVVQSRNELDKGIGTIISSPYRIRFIAEGHPLSLKFDSFAVIMLCVGIPTEWSVVEDLPEGPAVKIGENKDAMDGWFRLERVSDDEFNNYKLVFCPQQAEDDKCGDIGISIDHDDGTRRLVVSKNKPLVVQFQKLDKESL,apparent Kd (without RF correction),27.1 ± 8.4 µM
